Where two headings read alike, the source gives them in different places.
T1: human PD-L2 displayed on yeast (residues 20-123) (human; S. cerevisiae, UniProt Q9BQ51 20-123)
T1 construct: also called yeast displaying hPD-L2; ectodomain of hPD-L2; not shown: Aga2 of S. cerevisiae (pYAL vector); linker and tag between not g
T1 sequence: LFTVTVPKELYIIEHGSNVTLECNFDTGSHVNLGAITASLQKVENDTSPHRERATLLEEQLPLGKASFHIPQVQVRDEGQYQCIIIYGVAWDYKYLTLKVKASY


Key:
human PD-L1 on cells [1] = target: T2, human PD-L1 on cells (human, UniProt Q9NZQ7 19-290); assay: flow cytometry of a dissociated CT26 hPD-L1 positive tumor 4 h after intraperitoneal injection of both labeled agents; same quadrant of the PD-L1 negative tumor: 3.97 [panel CT26, hPD-L1 positive]
T2 construct: also called hPD-L1; PD-L1 on IFNγ-induced SK-MEL-28 (SKMEL28) cells

[2] = target: T3, recombinant biotinylated human PD-L1 ectodomain (IgV and IgC domains, residues 19-239) (human, UniProt Q9NZQ7 19-239, enzymatically biotinylated (BirA) on the biotin acceptor peptide); assay: surface plasmon resonance, biotinylated hPD-L1 immobilized on a streptavidin chip; column head 'PD-L1 affinity'
T3 construct: also called biotinylated hPD-L1; biotinylated PD-L1; not shown: carboxy-terminal 8x histidine tag

[3] = target: T3, recombinant biotinylated human PD-L1 …; assay: as above; remark: listed apart in the source
[4] = target: T4, human PD-L1 displayed on yeast (residues 19-132) (human; S. cerevisiae, UniProt Q9NZQ7 19-132); assay: competition flow cytometry on yeast displaying human PD-L1; competitor probe: labeled native PD-1 streptavidin tetramer
T4 construct: also called yeast displaying human PD-L1; not shown: Aga2 of S. cerevisiae (pYAL vector); linker and tag between not g

human PD-L1 on cells [5] = target: T2, human PD-L1 on cells; assay: competition flow cytometry on IFNγ-induced SK-MEL-28 cells, 100 nM labeled PD-1 tetramer as competitor
[6] = target: T1, human PD-L2 displayed on yeast …; assay: competition flow cytometry on yeast displaying the ectodomain of hPD-L2, 100 nM PD-1 tetramer as competitor; wild-type PD-1 on yeast displaying hPD-L2
[7] = target: T3, recombinant biotinylated human PD-L1 …; assay: SPR, biotinylated PD-L1 on streptavidin chip
[8] = target: T5, mouse PD-L1 on B16-F10 cells (mouse, UniProt Q9EP73 19-290); assay: competition flow cytometry on murine B16-F10 cells, 100 nM PD-1 tetramer as competitor; wild-type hPD-1 on murine B16-F10 cells
T5 construct: whole, on cells; also called mPD-L1; PD-L1 on murine B16-F10 cells

[9] = target: T1, human PD-L2 displayed on yeast …; assay: competition flow cytometry on yeast displaying human PD-L2; competitor probe: labeled native PD-1 streptavidin tetramer

T3 sequence (Q9NZQ7 other isoform, or with tags, fused parts or gaps): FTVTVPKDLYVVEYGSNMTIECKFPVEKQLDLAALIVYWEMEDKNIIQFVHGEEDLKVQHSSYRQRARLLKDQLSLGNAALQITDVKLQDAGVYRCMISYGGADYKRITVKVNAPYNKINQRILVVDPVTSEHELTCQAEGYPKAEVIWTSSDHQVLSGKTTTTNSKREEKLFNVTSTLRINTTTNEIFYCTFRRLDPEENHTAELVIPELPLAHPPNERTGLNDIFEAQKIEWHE
T4 sequence (Q9NZQ7 19-132 limits assumed): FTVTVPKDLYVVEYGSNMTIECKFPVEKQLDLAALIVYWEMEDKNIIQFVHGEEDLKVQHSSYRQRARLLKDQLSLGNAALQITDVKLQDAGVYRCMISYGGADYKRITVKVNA
T2 sequence (Q9NZQ7 19-290 limits assumed): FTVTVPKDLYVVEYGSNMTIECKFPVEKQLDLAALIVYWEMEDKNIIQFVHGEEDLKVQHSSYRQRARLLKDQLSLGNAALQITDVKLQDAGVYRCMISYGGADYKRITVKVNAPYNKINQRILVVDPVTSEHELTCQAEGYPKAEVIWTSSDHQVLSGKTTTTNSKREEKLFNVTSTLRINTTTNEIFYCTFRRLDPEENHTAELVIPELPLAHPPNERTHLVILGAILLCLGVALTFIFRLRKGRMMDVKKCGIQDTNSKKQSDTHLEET
T5 sequence (Q9EP73 19-290): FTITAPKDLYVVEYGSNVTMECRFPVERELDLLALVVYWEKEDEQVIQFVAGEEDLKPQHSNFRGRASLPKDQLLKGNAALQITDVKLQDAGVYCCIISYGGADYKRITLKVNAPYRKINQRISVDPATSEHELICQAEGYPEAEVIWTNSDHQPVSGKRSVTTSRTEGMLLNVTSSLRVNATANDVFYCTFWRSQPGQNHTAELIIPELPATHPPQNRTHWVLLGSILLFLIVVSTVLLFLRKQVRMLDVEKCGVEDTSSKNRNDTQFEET

Row | Molecule | Kd [2] | Kd [3] | further results
1 | AlexaFluor 488-conjugated anti-hPD-L1 antibody (clone 29E.2A3, BioLegend) |  |  | percent of cells in the quadrant HAC 594 negative, Anti-hPD-L1 488 positive (human PD-L1 on cells [1]): 2.22%
2 | G1 4-1 (designed binder, also called Generation 1, clone 4-1) PD-1 variant IgV domain: DSPDRPWNPPTFSPALLVVTEGDNATFTCSFSNTSESFRLVWHRESPGYETDTLASFPEDRSTPLPDCRFRVTQLPNGRDFHMSVVRARRNDSGTYVCGAIAFHPVIQIKESLRAELRVTER | 7.78 nM | 7.78 nM | IC50 (read off the curve) [4]: ~100 nM
3 | G1 4-4 (designed binder, also called Generation 1, clone 4-4) PD-1 variant IgV domain: DSPDRPWNPPTFSPALLVVTEGDNATFTCSFSNTSESFRLVWHRESPNNHAYTLALFPEDRSLPFPDCRFRVTQLPNGRDFHMSVVRARRNDSGTYICGAITFDPRIQIKESLRAELRVTER | 10.7 nM | 10.7 nM | IC50 (read off the curve) [4]: ~100 nM
4 | G2 4-12 (designed binder, also called Generation 2, clone 4-12) PD-1 variant IgV domain: DSPDRPWNPPTFSPALLVVTEGDNATFTCSFSNTSESFHVVWHYESPSGQTDTLAAFPEDRSQPGQDARFRVTQLPNGRDFHLSVVRARRNDSGTYVCGIISLAPKIQIKESLRAELRVTER | 0.218 nM | 0.218 nM | 
5 | wild-type human PD-1 IgV domain (residues 26-147), native PD-1 mimic polypeptide (receptor, Soluble monomer secreted from High Five insect cells; also called wild-type hPD-1; WT PD-1 monomer) DSPDRPWNPPTFSPALLVVTEGDNATFTCSFSNTSESFVLNWYRMSPSNQTDKLAAFPEDRSQPGQDCRFRVTQLPNGRDFHMSVVRARRNDSGTYLCGAISLAPKAQIKESLRAELRVTERHHHHHHHH | 3880 nM | 3880 nM | IC50 (human PD-L1 on cells [5]): 8200 nM; IC50 [6]: 2500 nM; dissociation half-life [7]: < 1 s; IC50 [8]: 2600 nM
6 | G2 4-2 (designed binder) DSPDRPWNPPTFSPALLVVTEGDNATFTCSFSNTSESFHIIWHRESPSGQTDTLAAFPEDRSQPGQDARFRVTQLPNGRDFHLSVVRARRNDSGTYVCGVISLAPKIQIKESLRAELRVTERHHHHHHHH | 0.222 nM | 0.222 nM | binding result [9]: no binding (tested: 1e-6 M (Log[Inhibitor (M)] = -6))

Now from value to molecule, other results behind:

Row | Kd [2] | Kd [3] | Molecule | further results
7 | 0.196 nM | 0.196 nM | G2 4-5 (designed binder, also called Generation 2, clone 4-5) PD-1 variant IgV domain: DSPDRPWNPPTFSPALLVVTEGDNATFTCSFSNTSESFHVVWHRESPSSQTDTLAAFPEDRSQPGPDARFRVTQLPNGRDFQLSVVRARRNDSGTYVCGVISLAPKIQIKESLRAELRVTER | 
8 | 0.267 nM | 0.267 nM | G2 4-1 (Generation 2, clone 4-1) (designed binder) DSPDRPWNPPTFSPALLVVTEGDNATFTCSFSNTSESFHVVWHRESPSGQTDTLAAFPEDRSQPGPDARFRVTQLPNGRDFHLSVVRARRNDSGTYVCGAISLAPKIQIKESLRAELRVTERHHHHHHHH | binding result [9]: no binding (tested: 1e-6 M (Log[Inhibitor (M)] = -6))
